Here are results for five molecules from patent US20240392262A1, “TRANSPOSASE AND USES THEREOF” (Poseida Therapeutics, Inc., published 2024).

Data set [1] has as its target T1, GFP1 Right NT-betaN TAL-PBx (synthetic construct).
T1 chain: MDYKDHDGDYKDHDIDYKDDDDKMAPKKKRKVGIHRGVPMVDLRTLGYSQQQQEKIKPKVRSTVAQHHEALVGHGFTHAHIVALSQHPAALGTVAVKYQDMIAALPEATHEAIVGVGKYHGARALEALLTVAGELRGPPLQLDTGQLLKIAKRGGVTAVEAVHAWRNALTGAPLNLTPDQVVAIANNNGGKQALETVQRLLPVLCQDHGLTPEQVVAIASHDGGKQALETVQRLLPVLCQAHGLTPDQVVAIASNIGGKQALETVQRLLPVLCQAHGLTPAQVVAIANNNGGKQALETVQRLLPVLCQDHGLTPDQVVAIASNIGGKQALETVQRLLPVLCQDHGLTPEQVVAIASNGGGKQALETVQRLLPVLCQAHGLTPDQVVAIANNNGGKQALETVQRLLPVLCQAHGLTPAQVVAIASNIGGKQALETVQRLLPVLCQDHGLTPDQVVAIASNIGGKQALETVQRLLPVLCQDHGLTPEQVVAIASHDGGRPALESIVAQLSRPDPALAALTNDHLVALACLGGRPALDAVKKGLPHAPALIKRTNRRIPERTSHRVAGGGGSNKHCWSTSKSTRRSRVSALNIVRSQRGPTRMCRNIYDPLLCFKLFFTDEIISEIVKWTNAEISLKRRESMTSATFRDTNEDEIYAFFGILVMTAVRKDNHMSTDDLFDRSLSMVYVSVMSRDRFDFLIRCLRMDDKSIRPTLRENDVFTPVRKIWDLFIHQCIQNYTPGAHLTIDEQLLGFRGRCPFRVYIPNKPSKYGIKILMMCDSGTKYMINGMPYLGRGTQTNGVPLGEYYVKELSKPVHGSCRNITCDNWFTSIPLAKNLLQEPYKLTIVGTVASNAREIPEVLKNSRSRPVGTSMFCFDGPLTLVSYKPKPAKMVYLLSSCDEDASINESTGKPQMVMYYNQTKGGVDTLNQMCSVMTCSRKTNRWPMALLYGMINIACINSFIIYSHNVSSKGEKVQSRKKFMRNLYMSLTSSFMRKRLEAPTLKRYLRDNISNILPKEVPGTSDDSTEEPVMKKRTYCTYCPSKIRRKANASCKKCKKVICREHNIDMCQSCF
Put plainly: cell_activity. The following applies: tags: 3xFlag, SV40 NLS; chain copies: 2.

In another data set the target is T2, GFP1 Right NT-G TAL-PBx (synthetic construct).
T2 chain: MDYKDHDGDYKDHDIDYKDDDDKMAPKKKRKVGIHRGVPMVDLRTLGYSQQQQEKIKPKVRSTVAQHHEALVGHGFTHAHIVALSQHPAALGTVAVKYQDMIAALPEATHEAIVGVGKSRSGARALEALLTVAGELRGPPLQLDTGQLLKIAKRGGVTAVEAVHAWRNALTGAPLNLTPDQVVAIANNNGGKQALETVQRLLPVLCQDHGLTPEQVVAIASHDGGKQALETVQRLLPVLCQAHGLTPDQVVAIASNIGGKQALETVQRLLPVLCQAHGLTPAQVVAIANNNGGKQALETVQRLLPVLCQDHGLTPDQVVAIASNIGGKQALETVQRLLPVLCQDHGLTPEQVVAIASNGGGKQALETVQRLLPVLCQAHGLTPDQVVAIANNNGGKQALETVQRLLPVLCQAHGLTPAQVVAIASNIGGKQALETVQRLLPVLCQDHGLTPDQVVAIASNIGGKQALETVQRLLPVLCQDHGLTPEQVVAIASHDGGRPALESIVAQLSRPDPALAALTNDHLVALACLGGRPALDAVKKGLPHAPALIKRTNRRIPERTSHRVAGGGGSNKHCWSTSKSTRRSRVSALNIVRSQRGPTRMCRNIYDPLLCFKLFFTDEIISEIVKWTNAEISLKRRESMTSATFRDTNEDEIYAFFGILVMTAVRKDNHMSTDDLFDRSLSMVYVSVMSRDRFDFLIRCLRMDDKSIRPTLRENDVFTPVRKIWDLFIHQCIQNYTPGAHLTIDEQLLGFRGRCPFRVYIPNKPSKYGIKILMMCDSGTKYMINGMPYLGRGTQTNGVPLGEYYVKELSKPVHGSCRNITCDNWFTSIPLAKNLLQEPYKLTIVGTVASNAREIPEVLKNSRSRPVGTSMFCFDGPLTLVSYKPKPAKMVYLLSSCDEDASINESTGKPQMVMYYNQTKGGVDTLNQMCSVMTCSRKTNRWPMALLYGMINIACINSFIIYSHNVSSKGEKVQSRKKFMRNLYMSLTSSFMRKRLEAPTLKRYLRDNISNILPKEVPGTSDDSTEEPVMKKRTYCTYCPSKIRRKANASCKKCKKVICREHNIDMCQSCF
Put plainly: cell_activity. The following applies: tags: 3xFlag, SV40 NLS; chain copies: 2.

Data set [2] deals with T3, GFP1 Right TALEN NT-betaN (synthetic construct).
T3 chain: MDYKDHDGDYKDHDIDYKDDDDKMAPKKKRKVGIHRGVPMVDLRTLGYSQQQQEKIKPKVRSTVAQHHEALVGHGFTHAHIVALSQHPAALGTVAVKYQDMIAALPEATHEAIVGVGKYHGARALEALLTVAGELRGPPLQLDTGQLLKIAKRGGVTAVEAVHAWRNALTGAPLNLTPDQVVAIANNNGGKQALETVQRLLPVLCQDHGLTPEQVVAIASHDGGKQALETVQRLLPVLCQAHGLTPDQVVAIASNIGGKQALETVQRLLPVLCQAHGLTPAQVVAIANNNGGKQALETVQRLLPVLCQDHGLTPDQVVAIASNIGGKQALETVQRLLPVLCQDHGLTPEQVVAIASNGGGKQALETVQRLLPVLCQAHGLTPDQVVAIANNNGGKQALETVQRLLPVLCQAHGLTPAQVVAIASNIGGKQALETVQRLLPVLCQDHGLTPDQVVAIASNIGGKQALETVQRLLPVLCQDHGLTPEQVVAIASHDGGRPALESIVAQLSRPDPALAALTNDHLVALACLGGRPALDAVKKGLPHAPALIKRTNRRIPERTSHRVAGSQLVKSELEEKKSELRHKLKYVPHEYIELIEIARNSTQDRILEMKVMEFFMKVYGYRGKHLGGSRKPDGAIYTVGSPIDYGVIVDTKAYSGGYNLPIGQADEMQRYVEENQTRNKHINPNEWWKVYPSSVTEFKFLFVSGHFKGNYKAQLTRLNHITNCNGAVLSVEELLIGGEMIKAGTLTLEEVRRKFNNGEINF
The experiment in a line: cell_activity; SSA. As to conditions: tags: 3xFlag, SV40 NLS, FokI fusion; chain copies: 2. As to the method:
(§1) The TALEN NT-G and NT-ON designs were tested using the single strand annealing reporter (Example 17). The target site corresponding to the GFP1 Right TALEN (SEQ ID NO: 288) was modified to replace T 5′ of the target sites with either an A, a C, or a G to create SEQ ID NOs: 403-405). A transfection mixture containing 90 ng of each TALEN, 10 ng of the corresponding reporter and 1.5p of Transit-2020 transfection reagent in a total volume of 20 μl of Serum Free OptiMem medium were assembled. A TALEN or a reporter were transfected alone as negative controls. An aliquot of 30,000 HEK293T cells in 180 μl of DMEM medium supplemented with 10% FBS was added and the transfection mixture was plated in 96 well plates and incubated for one day at 37° C. at 5% CO2. The following day, a lysis buffer was added to the cells and the lysate was transferred to a white 96 well plate. A buffer containing substrate for Firefly luciferase was mixed with the cells and luciferase luminescence was detected using a plate reader.

The next data set has as its target T4, GFP1 Right TALEN NT-G (synthetic construct).
T4 chain: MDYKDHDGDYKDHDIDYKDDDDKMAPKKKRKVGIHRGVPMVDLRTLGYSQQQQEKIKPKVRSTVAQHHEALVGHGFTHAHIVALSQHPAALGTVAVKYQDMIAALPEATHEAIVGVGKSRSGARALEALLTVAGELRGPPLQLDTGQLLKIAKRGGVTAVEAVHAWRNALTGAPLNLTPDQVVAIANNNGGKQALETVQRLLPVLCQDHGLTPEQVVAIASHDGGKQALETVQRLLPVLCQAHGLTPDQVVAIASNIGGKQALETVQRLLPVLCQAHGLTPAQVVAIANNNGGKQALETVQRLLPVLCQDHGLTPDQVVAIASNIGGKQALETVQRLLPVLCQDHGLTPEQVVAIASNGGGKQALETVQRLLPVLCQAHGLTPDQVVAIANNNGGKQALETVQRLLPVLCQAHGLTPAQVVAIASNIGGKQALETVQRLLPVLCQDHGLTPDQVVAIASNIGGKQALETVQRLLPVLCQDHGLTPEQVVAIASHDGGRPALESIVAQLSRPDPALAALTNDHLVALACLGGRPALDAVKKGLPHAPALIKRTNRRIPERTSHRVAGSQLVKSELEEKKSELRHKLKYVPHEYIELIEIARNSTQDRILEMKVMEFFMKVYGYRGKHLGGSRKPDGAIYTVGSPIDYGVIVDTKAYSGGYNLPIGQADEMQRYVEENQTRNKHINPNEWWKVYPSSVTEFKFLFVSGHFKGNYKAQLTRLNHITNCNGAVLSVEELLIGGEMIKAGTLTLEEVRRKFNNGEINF
Put plainly: cell_activity; SSA. As to conditions: tags: 3xFlag, SV40 NLS, FokI fusion; chain copies: 2. The procedure: as §1

For another data set, the target named is T5, GFP1 Right TALEN (synthetic construct).
T5 chain: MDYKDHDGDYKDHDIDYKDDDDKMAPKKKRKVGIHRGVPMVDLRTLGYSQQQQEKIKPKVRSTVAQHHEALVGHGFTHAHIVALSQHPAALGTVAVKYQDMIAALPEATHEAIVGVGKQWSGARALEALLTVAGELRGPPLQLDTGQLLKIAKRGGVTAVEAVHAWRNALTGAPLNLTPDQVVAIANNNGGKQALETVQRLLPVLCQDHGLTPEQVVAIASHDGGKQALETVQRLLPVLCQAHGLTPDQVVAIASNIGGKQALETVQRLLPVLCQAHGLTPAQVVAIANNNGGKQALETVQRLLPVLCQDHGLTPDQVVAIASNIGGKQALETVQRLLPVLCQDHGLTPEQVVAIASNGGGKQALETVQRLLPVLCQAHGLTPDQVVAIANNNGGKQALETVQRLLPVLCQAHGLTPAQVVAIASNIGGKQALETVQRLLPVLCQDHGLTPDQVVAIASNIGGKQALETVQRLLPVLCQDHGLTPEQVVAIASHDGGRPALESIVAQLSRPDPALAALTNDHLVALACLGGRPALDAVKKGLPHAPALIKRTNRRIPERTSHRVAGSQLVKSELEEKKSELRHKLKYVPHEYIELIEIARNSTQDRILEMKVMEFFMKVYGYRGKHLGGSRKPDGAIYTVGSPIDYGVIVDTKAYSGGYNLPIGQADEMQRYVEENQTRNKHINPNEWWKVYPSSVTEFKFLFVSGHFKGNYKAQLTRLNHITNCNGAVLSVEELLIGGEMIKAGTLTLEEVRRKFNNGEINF
The experiment in a line: cell_activity; SSA. The following applies: tags: 3xFlag, SV40 NLS, FokI fusion; chain copies: 2. The procedure:
as §1

B1: GFP1R 13 bp 5'G (dsDNA)
DNA 1: GGCAGATGAACGCAATCTCACGGCTTAACTACTGACCTGAAGTTCATCTGCC
DNA 2: GGCAGATGAACTTCAGGTCAGTAGTTAAGCCGTGAGATTGCGTTCATCTGCC
As for B1, the activity (in data set [1]; with GFP1 Right NT-G TAL-PBx) was 20.4 % GFP+ each time.

B2: GFP1 R SSA site 5'C (dsDNA)
DNA 1: GGCGCAGATGAACGCAAGCTGACCCTGAAGTTCATCTGCGTT
DNA 2: AACGCAGATGAACTTCAGGGTCAGCTTGCGTTCATCTGCGCC
For B2, the activity in data set [2] was 1.12e+06 RLU; with GFP1 Right TALEN NT-G it was 693000 RLU; with GFP1 Right TALEN it was 419000 RLU.

B3: GFP1 R SSA site 5'A (dsDNA)
DNA 1: GGAGCAGATGAACGCAAGCTGACCCTGAAGTTCATCTGCTTT
DNA 2: AAAGCAGATGAACTTCAGGGTCAGCTTGCGTTCATCTGCTCC
Regarding B3, the figures for the activity (in data set [2]; with GFP1 Right TALEN NT-G) were 1.56e+06 RLU and 1.14e+06 RLU, respectively.

B4: GFP1 R SSA site 5'G (dsDNA)
DNA 1: GGGGCAGATGAACGCAAGCTGACCCTGAAGTTCATCTGCCTT
DNA 2: AAGGCAGATGAACTTCAGGGTCAGCTTGCGTTCATCTGCCCC
As for B4, the values for the activity (in data set [2]; with GFP1 Right TALEN NT-G; in the data set with GFP1 Right TALEN) were 1.21e+06 RLU, 1.07e+06 RLU and 294000 RLU, respectively.

B5: GFP1 R+R SSA site (dsDNA)
DNA 1: GGTGCAGATGAACGCAAGCTGACCCTGAAGTTCATCTGCATT
DNA 2: AATGCAGATGAACTTCAGGGTCAGCTTGCGTTCATCTGCACC
On to B5, for which the activity in data set [2] amounted to 1.45e+06 RLU; in the data set with GFP1 Right TALEN NT-G it was 1.21e+06 RLU.
